This passage reports Kd, koff and kon results from article PMC11268095.

What all share (experiment): BLI; BLItz, Ni-NTA biosensor; phospho-His-SrcKD or variant (58 μM, 5 μL) immobilised as bait for 3 min; rPTPεD1 or variant as analyte, association 120 s, dissociation 120 s; 20 mM Tris-HCl pH 7.5, 50 mM NaCl, 5 mM DTT; 100 μM ATP and 1 μM CSK added before every immobilisation; global fit
Background: Biolayer interferometry detects binding as a change in optical thickness at a sensor tip.

Assay [1] has as its target phospho-His-SrcKD-D518K (phosphorylated His-tagged Src kinase domain, Trp 260-Leu 533, K295M/Y416F and a change at 518) (UniProt P00523).
For assay [2], the target named is phospho-His-SrcKD (phosphorylated His-tagged Src kinase domain, Trp 260-Leu 533, K295M/Y416F) (UniProt P00523).
In assay [3] the target is phospho-His-SrcKD-E486A (phosphorylated His-tagged Src kinase domain, Trp 260-Leu 533, K295M/Y416F/E486A) (UniProt P00523).

A word on the Kd: it is the free concentration of one partner at which half of the binding sites on the other are occupied at equilibrium, for simple one-to-one binding. The low end stands for higher affinity, the high end for lower affinity. In general, koff refers to the rate constant with which the complex falls apart. Low values mean slow dissociation, high ones fast dissociation. One may read the kon as a measure of how fast the partners come together. A low value points to slower complex formation. In assay [1], “rPTPεD1 (D1 domain of rPTP epsilon, Ser 101-Thr 400, C335A) (domain or fragment)” showed a dissociation constant (Kd) of 184 µM, a koff of 0.0661 s⁻¹ and a kon of 360 M⁻¹ s⁻¹. In assay [2], this substance came in with a dissociation constant Kd of 26.2 µM, a koff of 0.0284 s⁻¹ and a kon of 1080 M⁻¹ s⁻¹. In assay [3], the Kd stood at 80.4 µM, the dissociation rate constant (koff) is 0.0476 s⁻¹ and the kon was found to be 592 M⁻¹ s⁻¹.

As for “rPTPεD1-K237D (D1 domain of rPTP epsilon, Ser 101-Thr 400, C335A/K237D) (domain or fragment)”, in assay [2], the Kd was found to be 352 µM, the koff came out at 0.0853 s⁻¹ and the kon is 242 M⁻¹ s⁻¹.

In assay [2], “rPTPεD1-R220E (D1 domain of rPTP epsilon, Ser 101-Thr 400, C335A/R220E) (domain or fragment)” registered a Kd of 168 µM, a koff of 0.0341 s⁻¹ and an on-rate constant (kon) of 202 M⁻¹ s⁻¹.
